Assay results reported in the DeepSol protein solubility set.

assay: soluble on expression in E. coli; label from the status in PepcDB or PDB records

Sequence | soluble on expression in E. coli
MNTKARKYIPLTEATYYILLSLVKPMHGYGIMQLVEEMTNGEVKLGPGTLYGNTTKLLKEKLIVEVASTDRKKCYELTPFGKEVLELEYNRLQRSVRNGNSILGE | soluble
MGSDKIHHHHHHMHHVKTGALSISRLEYGADVIIEPDHLDNFYLIQIPTQGYAEIEFGSQKFISYSQVASLISPQQSLRMCWHANSPQLILKVSKDDFTYHCRQHIADSENNLLIFDPKLDFSTQGGAYFLQLVRTLMDALACEQHPLHHPLAFKQFESNLFNALIYGQPNNALHKLDHYKEKTVSPYFVKRTEAYIKEHLHEPLNVEILAEHAGVSVRTLFTGFKNYLGTTPMSYLKELRFEQAHLELMHNENLSVTDVAFKWGFTHLGRFSQEYKRRYGELPSSTRRSGQSEGSGLITSIFS | not soluble
MSLKSIAQEHDCLLIDLDGTVFCGRQPTGGAVQSLSQVRSRKLFVTNNASRSADEVAAHLCELGFTATGEDVVTSAQSAAHLLAGQLAPGARVLIVGTEALANEVAAVGLRPVRRFEDRPDAVVQGLSMTTGWSDLAEAALAIRAGALWVAANVDPTLPTERGLLPGNGSMVAALRTATGMDPRVAGKPAPALMTEAVARGDFRAALVVGDRLDTDIEGANAAGLPSLMVLTGVNSAWDAVYAEPVRRPTYIGHDLRSLHQDSKLLAVAPQPGWQIDVGGGAVTVCANGDVDDLEFIDDGLSIVRAVASAVWEARAADLHQRPLRIEAGDERARAALQRWSLMRSDHPVTSVGTQEGHHHHHH | not soluble
MRFLHTADWQLGMTRHFLNGEAQPRYSASRREAVASLGEIAKRTGAEFVVVSGDVFEHNQLAPRDVSQSLEAMRAIGVPVYLLPGNHDPLDASSVYTSALFVAERPDNVVVLDRAGVHEVRPGVQIVAAPWRSKAPTSDLIGDVLADLPADGVTRVLVGHGGVDILDPDKNKPSLIRMAAVEDALARGAVHYVALGDKHSRTEVGGSGRVWYSGSPEVTNYDDIESDPGHVLVVDIDENDARRAVRVESEKVGRWRFVTLRRSVDTDRDIADLDLNLDLLDDKERTVVRLALTGSLTVTDKAKLDECLDRYARLFAALTTWERHTDIAVIPADGEFDDLGIGGFAAAAVDELVATARSEAAEAEDARAALGLLLRLVDRDKGAALEHHHHHH | soluble
MTIETIKRIIEEENVRFIRLQFTDINGTLKNLEITPDVFLESWEDGIMFDGSSIEGFVRIEESDMYLKPVLDTFAVLPWTVDGAKSARVICDVYTPDGKPFEGDPRYRLRRMMEKAEQLGYTPYAGPEMEFFILPINEKGEPVPEFLDHGGYFDLLPLSKVEEIRRDIAIALEKMGITVEATHHEVAPSQHEVDFRYDTFLRTADNAQTVKLVIKTMAIFHGYHATFMPKPFYGVNGSGMHVHMSLFRGDKNAFYDPDDPLGLSKELRYFVGGILKHAKALAAVTNPTINSYKRLVPGYEAPVYISWSVGNRSALIRIPKARGKATRLEYRSPDPSCNIYLAFAAILAAGLDGIINKIEPPAPVEENIYHMTSERREELNIESLPGSLKEAVEELKKDDVIIDALGEHIFEKFVEAAEKDWKEFSTYVTNWELQRYLYL | soluble
SNAPLKEQKVINTANIKTNSKLDLAEYENGLINIATQQFDTESHVLQLNQYIPEKLIDELVAKVEAPVLTNIIEQDYFGKQNSNELSLSGVMIGLAMSSSVSNEEAMSKGTEVAKQLIEAINKNDKYNKSPITFAIFKQESTSSLKNGTYIASATVQKNDTNLGNWSTIDEKSYSYPSDEFTQAHGEDNTKINNFAKEIKGFSNGDFIPVNAKVSYKKDQMDTLNMNIVIKYNGKTELMALTQLAAQGMLDKLPKDAKVQLQIKSESKIEAVIIKEKNSDKPFVSFL | soluble
MLILNQRQQELLDMVKRESYVSVEKLADHFSVTRQTIRRDIALLAEHQLLQRYHGGASVLSSVENVAYQARQVLCIEEKRRIAACVARHIPDNASLFINLGTTTEEVAKALHRHRGLRVITNNLHVAEQMCDYPDCEVIVLGGSLRKRDRGLTGEATVQMIRQFRVDYGIIGVSSIESDGTLRDYDYREVRTTEAIIQQSRQVFLAADHSKFDRPALVELGRLSQIAALFTDKPVPPAIAHVMQEAGTQLHVAELEHHHHHH | soluble
RMPGLPDIAFTGDGQMTKHEIRALTLCALAPAAGELLWDVGGGSGTVAIEWMRTHPLCRAVTFERSAARVDQIESNAAALGVPSLAVFGDAPAAFEDVPPELSTPDAIFVGGGVTQDGLLDECWSRLRVGGRMVVNAVTAESEALLLQWFSNCGGQLRKFQVYRGEPLGGFTAWRPQLPVAQWSVTKQSKGDAA | not soluble
MRGSHHHHHHKHGQFTLRDMYEQFQNIMKMGPFSQILGMIPGFGTDFMSKGNEQESMARLKKLMTIMDSMNDQELDSTDGAKVFSKQPGRIQRVARGSGVSTRDVQELLTQYTKFAQMVKKMGGIKGLF | soluble
MVEIDPFEMAVKQLERAAQYMDISEEALEWLKKPMRIVEVSVPIEMDDGSVKVFTGFRVQHNWARGPTKGGIRWHPAETLSTVKALATWMTWKVAVVDLPYGGGKGGIIVNPKELSEREQERLARAYIRAVYDVIGPWTDIPAPDVYTNPKIMGWMMDEYETIMRRKGPAFGVITGKPLSIGGSLGRGTATAQGAIFTIREAAKALGIDLKGKKIAVQGYGNAGYYTAKLAKEQLGMTVVAVSDSRGGIYNPDGLDPDEVLKWKREHGSVKDFPGATNITNEELLELEVDVLAPAAIEEVITEKNADNIKAKIVAEVANGPVTPEADDILREKGILQIPDFLCNAGGVTVSYFEWVQNINGYYWTEEEVREKLDKKMTKAFWEVYNTHKDKNIHMRDAAYVVAVSRVYQAMKDRGWVKK | soluble
MEKADIEAIFARSRFISAMNLEILDIDHAGSRFSVRMPLQDTYERGAPGTKQFHGGALAALIDVVGDFAIGMLVGGGVPTMNLRIDYLRPAVGDYVDGVAVVRKAGKSAAVVDIDILCPAGKLVAIGRGTYVPITGLEHHHHHH | not soluble
SGSAARQPLFSFGVIADVQYADISDGRSFLGVPRYYRNSILVLQRAVETWNQHGNLKFVINMGDIVDGFCPKDQSLAATKKLVHEFEKFNGPVYHMIGNHCLYNLPREELLPLLKIPGRDGNAYYDFSPTPEYRVVVLDGYDISAVGWPQEHPNTIAALKILEEKNPNTDKNSPAGLEDVARRFVKYNGGVGEKQLQWLDSVLQDASNSNQRVIVCGHVPMSPGVASKAALLWNFDEVMNIIHKYDSVKVCLSGHDHKGGYFVDSHGVHHRSLEAALECPPGTYSFGYIDVYDNKLSLVGTDRMQSTDFEN | soluble
MVSIELRDIIKRFGEFELKVSLSVKDGELLTLLGPSGCGKTTTLRIIAGLEKPDKGRVYFDGRDITDLPPYERNIGLVFQDYALFPHMTVFKNVAFGLEVRRVPRMEIEKRVREVLDLVGLRGFENRLPEELSGGQQQRVALARALVIEPDVLLLDEPLSNLDAKVREKLRGEIKRIVKELGITTIYVTHDQEEAMVLSDRIAVMNFGRIEQVGEPYDLYYNPKNEFVANFLGISNIVELEAKEGRACLGDLCFEVGREGKGKIFFRPENVAVGEGIEAEVIGYELLPGRVRLRLSIEGREIIAEELLSRIGKKIPKKVRIRVREFKILP | soluble
MIRELVTTAAITGAAIGGAPVAGADPQRYDGDVPGMNYDASLGAPCSSWERFIFGRGPSGQAEACHFPPPNQFPPAETGYWVISYPLYGVQQVGAPCPKPQAAAQSPDGLPMLCLGARGWQPGWFTGAGFFPPEP | soluble
MAHHHHHHMRGKGHKRLAARSFQQWQKLHYNALCDRQMPTPLHATLRLPVRRVAHQPSSCPSAPASVDMQLTTNSSAVLQWWQREYDPFLLGCDASAHRTAGPTPPATTATHVLASTRVSAHVGPPAPPLGYPDYIAIEATQHTEGVLRGETYAYHHAAAVGAVPAPPPGAAYPSPVKWIQQPLLDGFVAQRLTAHIGVTTGSLLDTRRTAMALGRQLPPVELSPFYAASALLDRWCLFGEAAAVVPSMPASSGATLDGTQQSQRPHDAAAHHLRIAELALGAGLLSNYRAVWLNGAVLSHPGTARSVLVVGPRRSGKTTLALHCLSAAAMQASSSASGDGGVRLTAAEHFFLAAGMPVRRMLDPASTRLTSPTIFACSLPHHITVGLGAVLGTLRPNPGLAAAVELPSFLQCEAGLRACLRNTDGVLWDMSKTYRVRLEDIYRASSPDISTQWAPVVVNTLAGVVLLDWNVEELASASPTPVRNAVREIPLHDGGVEELLKRAQDYMFHGHHLLRTVYDAPQDAPARLADALADEWDTAQPRSLANGTAPALHCIEGSVNFDLATQLIMSLLSERA | not soluble
YRRFEKEKLKSQWNNDNPLFKSATTTVMNPKFAES | soluble
MLMATMTPWYLYLIRTADNALYTGITTDVARRYRQHQTGKGAKALRGKGELTLAFAAQVGDRSLALRIEYRIKQLTKRQKERLVTEREAFEALLSSLQTPVLKND | not soluble
SANPKLLGLELSEAEAIGADSARFEELLLQASKELQQAQTTRPESTQIQPQPGFCIKTNSSEGKVFINICHSPSIPPPADVTEEELLQMLEEDQAGFRIPMSLGEPHAELDAKGQGCTAYDVAVNSDFYRRMQNSDFLRELVITIAREGLEDKYNLQLNPEWRMMKNRPFMGSISQQNIRSEQRPRIQELGDLYTPAPGRAESGPEKPHLNLWLEAPDLLLAEIDLPKLDGALGLSLEIGENRLVMGGPQQLYHLDAYIPLQINSHESKAAFHRKRKQLMVAMPLLLVPS | soluble
MGSDKIHHHHHHVDLMLKSVISYFLPNYCLVCEREIDPNDYLCKDCLTSIRGPIMAPVELLNIDSAHSYWKYESPMKELIRAYKFGDRPGVARLFAKIVFEMIDVFAPSTDVIVPVPTSLQAFIRRGFDTNLRILRHLARTIDIKIDNVLSISGKTVPQSTLKMQDRIDNVRDKFFLRKKPRSTSVILFDDVVTSGATASQCARVLREGGVKEITLLAIASAKK | not soluble
MGSDKIHHHHHHMTNHQHPQTTTQWIDLIANSELPAITSTARMLDKFSNDDKSSLPKLSEAILHDQGLSSCLLKVANNIQHISINKVTTVSRASVVLGIQSVKNICLTAKLVSSLLASKSLDINVYEQLTQLMANSFYAGMLAKMMVPNYSEEIQEEVYLAAMLYRIGESAFWSAGGDVAKKLANYEAKSPQDFNQYCRKEMGTNFSELSKGLAGTWNLSDLLIKALDQPTTRTDEVKVIYFADKLSAIIAKPEGCEEDYHKLLKEIAYIVGISVRQLTVRIEHTREQAEKLLSSYGAEILTERINSLPTAEDFKSLGGDFDTREVVSKDKALLNGFMKLTKLIQNSKDFNEYLQLTLESLALTFAFDRSSFLMLVDDRARVKSRLVVNKNAQDDASKINIDIKHSDNVIARVISTDTAALINDHQEIRWRDLVTEEISEVIVEGAIAFVPVKIGGKAIGVICLQLLSPDQKIETQDFQQICAFIDHLNMCLTMIKYS | not soluble
MTGAVCPGSFDPVTLGHVDIFERAAAQFDEVVVAILVNPAKTGMFDLDERIAMVKESTTHLPNLRVQVGHGLVVDFVRSCGMTAIVKGLRTGTDFEYELQMAQMNKHIAGVDTFFVATAPRYSFVSSSLAKEVAMLGGDVSELLPEPVNRRLRDRLN | soluble
ENMLFTVVSLYISTKVLDFILEGYNPKKSVTIISDYYEEIATEIDANLERGITLFNGQGFYMRQDKKILYIVISRDQLLPLTKIVNKYDEKAFFIINDVQSVVGEGFTKQITSE | not soluble
MFVLPVRFERSPRLHPMLSESPHPVGTRVVVQGKRGPEIATVRGEASEPERQARYGAVLRAATPEDLATWEDLHRRAEDLKWLLRARARERGLPVKLVAVEFTLDESLVTISYSADERIELSSLIGELRAHTRARVNFAAIGPREQAQMLGTLGACGRENCSSTHLQDFAPVSIRMARDQQLPLNPEKLSGPCGRLLCCLQYEHEQYLDLLRDLPRKNAKMCHEGSGACGKVTKLHPLAGTVDLQTDQGLLQDVPASELRRLPEQAAARSPRREPREAPASTDLEHHHHHH | soluble
